Results: patent US6420532B1, “Method of obtaining compositions comprising Y2 specific compounds” (Synaptic Pharmaceutical Corporation, priority 1994, dated 2002)
Where two headings read alike, the source gives them in different places. Bridges are numbered along the chain shown (N, C = ends). Where no end group is shown, it is not given here. [ ]: non-standard residue; d: D form. Aoc = NCCCCCCCC(=O)O

T1: Y2-like receptor population expressed by human SK-N-Be(2) neuroblastoma cells (human)
T1 chain: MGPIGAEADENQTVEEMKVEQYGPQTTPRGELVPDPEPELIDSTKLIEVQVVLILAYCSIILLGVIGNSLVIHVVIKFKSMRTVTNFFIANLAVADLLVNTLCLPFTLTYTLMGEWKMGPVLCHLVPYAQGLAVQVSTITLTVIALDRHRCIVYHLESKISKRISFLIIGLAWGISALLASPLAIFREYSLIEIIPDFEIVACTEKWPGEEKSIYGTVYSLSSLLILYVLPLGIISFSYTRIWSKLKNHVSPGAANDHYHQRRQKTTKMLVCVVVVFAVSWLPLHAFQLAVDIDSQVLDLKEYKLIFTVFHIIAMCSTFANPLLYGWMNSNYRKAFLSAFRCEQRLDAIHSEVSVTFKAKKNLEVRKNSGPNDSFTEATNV

T2: human hippocampal Y2 receptor (clone CG-13) (human, UniProt P49146 1-381)
T2 sequence: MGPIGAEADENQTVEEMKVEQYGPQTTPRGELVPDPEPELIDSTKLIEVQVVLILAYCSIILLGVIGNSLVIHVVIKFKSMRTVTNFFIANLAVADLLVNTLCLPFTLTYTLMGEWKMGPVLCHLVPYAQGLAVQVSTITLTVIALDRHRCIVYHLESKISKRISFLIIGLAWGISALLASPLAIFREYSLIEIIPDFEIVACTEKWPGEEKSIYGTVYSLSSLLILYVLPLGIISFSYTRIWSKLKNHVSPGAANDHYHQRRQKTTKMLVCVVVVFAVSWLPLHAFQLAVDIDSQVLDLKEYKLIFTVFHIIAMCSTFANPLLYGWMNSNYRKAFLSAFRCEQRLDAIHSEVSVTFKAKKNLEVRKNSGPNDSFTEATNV

T3: human Y1 receptor (human, UniProt P25929 1-384)
T3 construct: whole, on cells; transiently expressed in COS-7 cells; membranes used; also called Y1 gene
T3 sequence (looked up): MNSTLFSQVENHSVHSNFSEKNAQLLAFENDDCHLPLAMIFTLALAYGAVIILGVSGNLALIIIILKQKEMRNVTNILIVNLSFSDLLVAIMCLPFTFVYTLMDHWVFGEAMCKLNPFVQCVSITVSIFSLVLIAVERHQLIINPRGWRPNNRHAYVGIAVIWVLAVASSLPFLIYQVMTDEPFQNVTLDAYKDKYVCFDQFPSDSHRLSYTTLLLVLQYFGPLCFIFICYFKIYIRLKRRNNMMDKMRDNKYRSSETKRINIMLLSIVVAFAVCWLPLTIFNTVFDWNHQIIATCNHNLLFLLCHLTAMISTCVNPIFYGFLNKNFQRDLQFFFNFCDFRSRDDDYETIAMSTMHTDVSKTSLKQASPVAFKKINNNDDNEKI

T4: rat Y2a receptor (encoded by rs5a) (rat)
T4 chain: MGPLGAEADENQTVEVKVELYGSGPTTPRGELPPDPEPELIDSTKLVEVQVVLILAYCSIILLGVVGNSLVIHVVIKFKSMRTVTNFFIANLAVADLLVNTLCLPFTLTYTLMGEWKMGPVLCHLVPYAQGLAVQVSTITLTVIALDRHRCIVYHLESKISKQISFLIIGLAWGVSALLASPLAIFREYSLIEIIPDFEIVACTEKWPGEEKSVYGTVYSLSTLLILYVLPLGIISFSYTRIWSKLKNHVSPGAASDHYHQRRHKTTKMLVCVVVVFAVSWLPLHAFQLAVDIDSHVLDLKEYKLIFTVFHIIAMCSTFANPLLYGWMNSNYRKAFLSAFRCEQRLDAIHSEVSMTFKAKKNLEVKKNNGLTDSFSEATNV


Legend:
[1] = molecular target: T1, Y2-like receptor population expressed …; assay: 125I-PYY displacement, SK-N-Be(2) membranes, Ki from IC50
[2] = molecular target: T2, human hippocampal Y2 receptor (clone …); assay: cell-based or functional assay
[3] = molecular target: T2, human hippocampal Y2 receptor (clone …); assay: 125I-PYY displacement, COS-7 membranes, Ki from IC50
[4] = molecular target: T2, human hippocampal Y2 receptor (clone …); assay: as above; remark: listed apart in the source
human Y4 receptor = molecular target: T5, human Y4 receptor (human, UniProt P50391 1-375); assay: as above
T5 construct: whole, on cells; transiently expressed in COS-7 cells; membranes used

[5] = molecular target: T2, human hippocampal Y2 receptor (clone …); assay: 125I-PYY displacement binding assay (Table 9, binding column)
human Y1 receptor [6] = molecular target: T3, human Y1 receptor; assay: 125I-PYY displacement, COS-7 membranes, Ki from IC50
human Y1 receptor [7] = molecular target: T3, human Y1 receptor; assay: as above; remark: listed apart in the source
[8] = molecular target: T2, human hippocampal Y2 receptor (clone …); assay: as above; remark: listed apart in the source
[9] = molecular target: T4, rat Y2a receptor (encoded by rs5a); assay: as above

T5 sequence (P50391 whole entry): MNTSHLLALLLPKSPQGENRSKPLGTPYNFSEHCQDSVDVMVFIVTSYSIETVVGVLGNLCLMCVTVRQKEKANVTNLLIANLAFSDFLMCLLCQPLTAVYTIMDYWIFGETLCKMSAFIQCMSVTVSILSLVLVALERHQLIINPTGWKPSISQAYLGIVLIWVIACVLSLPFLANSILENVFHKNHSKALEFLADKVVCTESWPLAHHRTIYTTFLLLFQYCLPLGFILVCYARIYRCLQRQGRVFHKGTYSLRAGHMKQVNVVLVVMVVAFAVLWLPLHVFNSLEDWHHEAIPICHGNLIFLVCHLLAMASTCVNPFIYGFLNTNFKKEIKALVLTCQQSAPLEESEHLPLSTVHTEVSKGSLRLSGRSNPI

Row | Ki [1] [nM] | EC50, inhibition of forskolin-stimulated cAMP accumulation, stably transfected 293 cells [2] [nM] | Ki [3] [nM] | Ki [4] [nM] | Ki (human Y4 receptor) [nM] | Ki [5] [nM] | Ki (human Y1 receptor [6]) [nM] | Ki (human Y1 receptor [7]) [nM] | Ki [8] [nM] | Ki [9] [nM] | Binder
1 |  |  |  | > 1000 | 0.18 |  |  | 460 | > 1000 |  | APLEPMYPGDYATHEQRAQYETQLRRYINTLTRPRY-NH2 (peptide, UniProt P06303 30-65, looked up, mature; also called rat PP) [PP, rat]
2 |  |  | 1.5 |  |  |  |  |  |  | 1.5 | SPEELSRYYASLRHYLNLVTRQRY-NH2 (peptide, UniProt P68005 13-36, looked up, range 13-36; also called PYY13-36, porcine) [porcine PYY13-36]
3 |  | 0.14 |  | 3.5 | 120 | 3.5 |  | 73 |  |  | YCSK[Aoc]RHCINLITRQRY-NH2 (disulfide 2-8; N-terminus assumed; SMILES CC[C@H](C)[C@H](NC(=O)[C@@H]1CSSC[C@H](NC(=O)[C@@H](N)Cc2ccc(O)cc2)C(=O)N[C@@H](CO)C(=O)N[C@@H](CCCCN)C(=O)NCCCCCCCC(=O)N[C@@H](CCCNC(=N)N)C(=O)N[C@@H](Cc2c[nH]cn2)C(=O)N1)C(=O)N[C@@H](CC(N)=O)C(=O)N[C@@H](CC(C)C)C(=O)N[C@H](C(=O)N[C@H](C(=O)N[C@@H](CCCNC(=N)N)C(=O)N[C@@H](CCC(N)=O)C(=O)N[C@@H](CCCNC(=N)N)C(=O)N[C@@H](Cc1ccc(O)cc1)C(N)=O)[C@@H](C)O)[C@@H](C)CC) [C2-NPY, porcine]
4 | 70 |  | 210 | 380 |  |  |  | > 1000 | 380 |  | HYINLITRQRY-NH2 (peptide, UniProt P01304 35-45, looked up, range 26-36; also called NPY26-36, porcine) [porcine NPY26-36]
5 | 1.8 |  |  |  | 38 |  |  |  |  |  | PAEDLARYYSALRHYINLITRQRY-NH2 (peptide, UniProt P01304 22-45, looked up, range 13-36; also called NPY13-36, porcine) [porcine NPY13-36]

More lines, now with the values behind:

Row | Binder | Ki [1] [nM] | EC50, inhibition of forskolin-stimulated cAMP accumulation, stably transfected 293 cells [2] [nM] | Ki [3] [nM] | Ki [4] [nM] | Ki (human Y4 receptor) [nM] | Ki [5] [nM] | Ki (human Y1 receptor [6]) [nM] | Ki (human Y1 receptor [7]) [nM] | Ki [8] [nM] | Ki [9] [nM]
6 | DLARYYSALRHYINLITRQRY-NH2 (peptide, UniProt P01304 25-45, looked up, range 16-36; also called NPY16-36, porcine) [porcine NPY16-36] | 5 | 1.8 | 3.8 | 3.6 | 54 | 3.6 |  |  |  | 
7 | YYSALRHYINLITRQRY-NH2 (peptide, UniProt P01304 29-45, looked up, range 20-36; also called NPY20-36, porcine) [porcine NPY20-36] |  |  |  |  | 120 |  | 62 | 63 |  | 
8 | SALRHYINLITRQRY-NH2 (peptide, UniProt P01304 31-45, looked up, range 22-36; also called NPY22-36, porcine) [porcine NPY22-36] | 3.2 | 2.3 | 4.6 | 18 |  | 18 | 170 |  |  | 
9 | APSEPHHPGDQATQDQLAQYYSDLYQYITFVTRPRF-NH2 (also called frog PP) [PP, frog] |  |  |  | > 1000 | 61 |  |  | 96 |  | 
